What was measured:
mouse TMEM106B (mouse) = mouse TMEM106B (mouse) (UniProt Q80X71); assay: FACS Neuro2a
human TMEM106B (human) [1] = biological target: human TMEM106B (human) (UniProt Q9NUM4); assay: FACS HeLa
human TMEM106B (human) [2] = biological target: human TMEM106B (human) (UniProt Q9NUM4); assay: FACS A549
human TMEM106B (human) [3] = biological target: human TMEM106B (human) (UniProt Q9NUM4); assay: FACS U251

| Substance | MFI (mouse TMEM106B (mouse)) | MFI (human TMEM106B (human) [1]) | MFI (human TMEM106B (human) [2]) | MFI (human TMEM106B (human) [3]) |
| --- | --- | --- | --- | --- |
| Negative ctrl #1 (antibody) | 220 MFI | 152 MFI | 148 MFI | 165 MFI |
| Negative ctrl #2 (antibody) | 235 MFI | 149 MFI | 162 MFI | 165 MFI |
| Negative ctrl #3 (antibody) | 216 MFI | 143 MFI | 95 MFI | 164 MFI |
